From PMC7407445, “Role of RadA and DNA Polymerases in Recombination-Associated DNA Synthesis in Hyperthermophilic Archaea”

Target: RadA recombinase (Pyrococcus abyssi, UniProt Q9V233 1-353)
Assay: EMSA; no ATP; 25 nM ssDNA, RadA 0-6.4 uM; 20 mM Tris-HCl pH 8.0, 50 ug/mL BSA, 2 mM DTT, 0.5% Triton, 65 C, 10 min; 0.75% native agarose gel
Settings: protein: recombinant; tags: none (untagged); label: 5' HiLyte Fluor 647; single strand

Chain of RadA recombinase (Q9V233 whole entry): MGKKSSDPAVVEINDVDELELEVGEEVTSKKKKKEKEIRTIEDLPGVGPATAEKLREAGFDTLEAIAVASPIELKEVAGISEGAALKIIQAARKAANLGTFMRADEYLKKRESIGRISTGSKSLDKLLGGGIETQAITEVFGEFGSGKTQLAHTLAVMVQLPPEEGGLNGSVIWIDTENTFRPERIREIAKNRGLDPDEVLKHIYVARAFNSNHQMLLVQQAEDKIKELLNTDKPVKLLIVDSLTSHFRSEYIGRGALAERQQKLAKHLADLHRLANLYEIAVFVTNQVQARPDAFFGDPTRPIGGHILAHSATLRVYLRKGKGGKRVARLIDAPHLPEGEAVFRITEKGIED

B1: L93-5'HL 647 (93-mer ssDNA) (ssDNA)
DNA: AAAGGCGGTAATACGGTTATCCACAGAATCAGGGGATAACGCAGGAAAGAACATGTGAGCAAAAGGCCAGCAAAAGGCCAGGAACCGTAAAAA
binding result: binds
